From publication PMC9018054, “Biotechnological potential and initial characterization of two novel sesquiterpene synthases from Basidiomycota Coniophora puteana for heterologous production of δ-cadinol” (Microbial Cell Factories, 2022)
Numbering of substitutions follows the chain as printed. Numbers in names are those of the source.

B1: Copu9 (Coniophora puteana RWD-64-598 SS2; N228A) (protein)
chain: MSPTATFTTTSSEENAPTKFILPDLVSDCTYPLLLNDNCEPVARASEQWLIAGARLQEPRRTKFMGLLAGELTAACYPHADASHLRVCVDFMNWLFNMDDWLDDFDVDDTWGMRHCCLGAFRDPVGFETDKLGGLMSKSFFSRFRQDGGPGCTERFIHTMDLFFIAVAQQAGDRANGITPDLESYITVRRDTSGCKPCFALIEYAAGIDLPDHVIYHPTLAAMEEATADLVTWSNDIFSYNKEQVTDDTHNMIPVLMRERGLDLQGAVDFVGRLCKGTIERFETERARLPSWGPELDAQVQTYIEGLQNWIVGSLHWSFDSHRYFGKDGHAVKKHRIVKLLPKRVPQQA
notes: full-length, codon-optimized, N-terminal hexa-His tag (pET-M11), expressed in E. coli BL21 RIL DE3; homodimer; 13 N-terminal residues not visible in crystal
B2: Copu9 (Coniophora puteana RWD-64-598 SS2; T192N) (protein)
chain: B1 chain with T192N, A228N
notes: as for B1
B3: Copu9 (Coniophora puteana RWD-64-598 SS2; P197C) (protein)
chain: B1 chain with P197C, A228N
notes: as for B1
B4: Copu9 (Coniophora puteana RWD-64-598 SS2; C76V) (protein)
chain: B1 chain with C76V, A228N
notes: as for B1
B5: Copu9 (Coniophora puteana RWD-64-598 SS2; G194A) (protein)
chain: B1 chain with G194A, A228N
notes: as for B1
B6: Copu9 (Coniophora puteana RWD-64-598 SS2; C195V) (protein)
chain: B1 chain with C195V, A228N
notes: as for B1
B7: Copu9 (Coniophora puteana RWD-64-598 SS2; T73C) (protein)
chain: B1 chain with T73C, A228N
notes: as for B1
B8: Copu9 (Coniophora puteana RWD-64-598 SS2; S314N) (protein)
chain: B1 chain with A228N, S314N
notes: as for B1
B9: Copu9 (Coniophora puteana RWD-64-598 SS2) (protein)
chain: B1 chain with A228N
notes: as for B1
B10: Copu9, (+)-δ-cadinol synthase from Coniophora puteana (enzyme, UniProt A0A5M3MXY8 1-349, looked up)
chain: B1 chain with A228N
notes: Copu9, sesquiterpene synthase ((+)-δ-cadinol synthase) of Coniophora puteana, XP_007765560; codon-optimised open reading frame; the crystal structure is complete except for the 13 N-terminal residues; no removal of the tag is described; Crystallised with three Mg2+ ions and alendronate (AHD); also called Copu9 WT; Copu9·Mg3·AHD; source: E. coli BL21 RIL DE3, purified (Ni2+-NTA, size exclusion …)

biological target: T1, Copu5 (Coniophora puteana, UniProt A0A5M3MX24); assay: sesquiterpene production in E. coli, GC-MS and NMR of product; type: cell-based; settings: E. coli HMS174 (DE3) with DXS and IDI co-expression, endogenous FPP; product (+)-δ-cadinol
T1 construct: full-length, codon-optimized, N-terminal hexa-His tag (pET-M11) for thermal shift, expressed in E. coli BL21 RIL DE3; purified in pyrophosphate-containing buffer; pACYC-based operon in E. coli HMS174 (DE3) for terpene production
T1 sequence (A0A5M3MX24 entry or part of it): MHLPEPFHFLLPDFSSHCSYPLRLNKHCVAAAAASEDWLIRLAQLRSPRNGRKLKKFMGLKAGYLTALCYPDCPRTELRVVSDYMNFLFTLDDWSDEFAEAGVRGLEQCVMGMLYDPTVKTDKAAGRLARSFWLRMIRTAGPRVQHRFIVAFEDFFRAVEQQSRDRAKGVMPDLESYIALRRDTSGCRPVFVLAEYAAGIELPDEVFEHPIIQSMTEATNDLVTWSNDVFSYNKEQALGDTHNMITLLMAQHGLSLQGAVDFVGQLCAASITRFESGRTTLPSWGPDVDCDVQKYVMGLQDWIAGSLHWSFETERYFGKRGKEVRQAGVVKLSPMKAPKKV

Q: Which “sesquiterpene production in E. coli, GC-MS and NMR of product” value does the source give for CC(C)=CCC/C(C)=C/CC/C(C)=C/COP(=O)(O)OP(=O)(O)O [FPP] here?
A: The value was “catalyze the formation of (+)-δ-cadinol as main product from its direct precursor FPP”.

substrate: CC(C)=CCC/C(C)=C/CC/C(C)=C/CO[P@@](=O)(O)OP(=O)(O)O; assay: purified protein; type: biochemical, Coniophora puteana; settings: 25 °C, FPP 0-70 µM in methanol, 0.8–1.2 µM enzyme

Q: Which results are given for B1?
A: Km: 4.42 ± 0.59 µM; kcat: 0.0262 ± 0.0007 s⁻¹; kcat/Km: 5940 M⁻¹ s⁻¹

Q: For B2, which Km is on record?
A: The Km was 8.28 ± 0.60 µM.

Q: And the kcat?
A: The kcat was 0.0396 ± 0.0008 s⁻¹.

Q: What about the kcat/Km of the same molecule?
A: The kcat/Km was 4780 M⁻¹ s⁻¹.

Q: Which results are given for B3?
A: Km: 6.82 ± 0.77 µM; kcat: 0.0381 ± 0.001 s⁻¹; kcat/Km: 5580 M⁻¹ s⁻¹

Q: Which results are given for B4?
A: Km: 3.14 ± 0.45 µM; kcat: 0.0291 ± 0.0007 s⁻¹; kcat/Km: 9250 M⁻¹ s⁻¹

Q: Which Km does the source give for B5 here?
A: The Km was 7.00 ± 0.37 µM.

Q: And the kcat?
A: Its kcat is 0.036 ± 0.0005 s⁻¹.

Q: What about the kcat/Km of the same molecule?
A: The kcat/Km was 5140 M⁻¹ s⁻¹.

Q: How did the Km turn out when B6 was run?
A: Its Km is 8.48 ± 0.51 µM.

Q: And the kcat?
A: Its kcat is 0.0398 ± 0.0007 s⁻¹.

Q: And the kcat/Km?
A: Its kcat/Km is 4690 M⁻¹ s⁻¹.

Q: What does the source list for B7?
A: Km: 6.28 ± 1.37 µM; kcat: 0.0502 ± 0.0026 s⁻¹; kcat/Km: 8000 M⁻¹ s⁻¹

Q: Which results are given for B8?
A: Km: 5.10 ± 0.54 µM; kcat: 0.0192 ± 0.0005 s⁻¹; kcat/Km: 3760 M⁻¹ s⁻¹

Q: Which Km does the source give for B9 here?
A: The Km was 4.59 ± 0.17 µM.

Q: And the kcat?
A: Its kcat is 0.0324 ± 0.0003 s⁻¹.

Q: What about the kcat/Km of the same molecule?
A: The kcat/Km was 7070 M⁻¹ s⁻¹.

Biological target: the molecule itself
Assay: SEC; HighLoad Superdex S200 16/60; 20 mM Tris/HCl pH 7.5, 150 mM NaCl, 5 mM MgCl2; calibrated with a high molecular weight standard
Settings: not given

Q: With B10 as the molecule, how does the “stoichiometry N” value read?
A: The value was 2.
